One molecule from US20050106660A1 (Pieris, published 2005) can be followed below.

A value given as a limit tells only on which side of the number the result lay.

Broadly, the Kd is a measure of binding affinity in units of concentration.

For test [1], the target named is T1, hemoglobin (Sigma).
T1 construct: Immobilized by amine coupling on a CM5 chip (ca. 5000 RU)
In words: not stated there (affinity measured by SPR in Example 5). Here is the method: (§1) The binding affinity of the anticalin HbgA to hemoglobin was determined by surface plasmon resonance (SPR) using the BIAcore X system (BIACORE). Hemoglobin (100 μg/ml, dissolved in 10 mM maleate, pH 6.0) was immobilized at an amount of ca. 5000 resonance units (RU) to the surface of one flow channel on a CM5 sensor chip (BIACORE) using the amine coupling kit (BIACORE) according to the manufacturer's instructions. Unreacted groups on the biosensor chip surface were blocked with 1 M ethanolamine hydrochloride-NaOH pH 8.5. […] The concentration of HbgA and also of ApoD were determined by absorption at 280 nm using a calculated extinction coefficient of 54600 M⁻¹ cm⁻¹ and 34150 M⁻¹ cm⁻¹, respectively (Gill and von Hippel, Anal. Biochem. 182 (1989), 319-326). […] The binding of HbgA to hemoglobin, immobilized on the sensor chip, was measured by applying each 75 μl of these protein solutions. Steady state resonance values were detected for the channel with the immobilized hemoglobin for each concentration applied. For each measurement the resonance value that was due to buffer effects and simultaneously measured for the second channel of the sensor chip, was subtracted, and the resulting difference value was plotted against the applied concentration. […]

Test [2] concerns the target T2, bovine serum albumin (BSA, Sigma) (bovine, UniProt P02769 25-607).
T2 construct: Immobilized by amine coupling on a CM5 chip (ca. 5000 RU)
In words: SPR (BIAcore X), BSA immobilized on CM5 chip, steady state. On the technique in general: In SPR one partner is held on a chip, and binding of the other changes the refractive index at the surface.

The target in test [3] is T1, hemoglobin (Sigma). The experiment in a line: SPR (BIAcore X), hemoglobin immobilized on CM5 chip, steady-state values fitted. The protocol: as §1

T2 sequence (P02769 25-607 limits assumed): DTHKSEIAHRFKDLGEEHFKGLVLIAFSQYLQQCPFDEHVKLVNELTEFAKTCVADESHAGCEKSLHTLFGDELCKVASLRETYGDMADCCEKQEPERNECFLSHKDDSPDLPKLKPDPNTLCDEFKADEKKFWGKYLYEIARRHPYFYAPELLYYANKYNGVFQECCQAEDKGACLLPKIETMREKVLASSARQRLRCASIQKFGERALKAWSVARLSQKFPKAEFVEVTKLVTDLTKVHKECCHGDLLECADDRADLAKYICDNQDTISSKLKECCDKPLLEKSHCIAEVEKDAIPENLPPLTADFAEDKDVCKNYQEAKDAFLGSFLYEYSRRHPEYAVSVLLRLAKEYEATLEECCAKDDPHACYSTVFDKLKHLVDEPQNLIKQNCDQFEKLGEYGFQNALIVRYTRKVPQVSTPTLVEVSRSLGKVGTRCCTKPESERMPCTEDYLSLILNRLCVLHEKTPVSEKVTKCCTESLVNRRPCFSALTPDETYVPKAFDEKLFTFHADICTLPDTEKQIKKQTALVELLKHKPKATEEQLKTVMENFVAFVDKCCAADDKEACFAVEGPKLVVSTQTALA

B1: anticalin HbgA (mutein of human apolipoprotein D), purified, with C-terminal Strep-Tag II (designed binder)
chain: QAFHLGKCPNPPVQENFDVNKYPGRWYEIEKIPQFVWMGRCIQANYSLMENGKIKVLNQFLRITLDVWQIEGEATPVNLTEPAKLEVKEGLGDPSAPYWILATDYENYALVYSCESFLWLFHWDFAWILARNVALPPETVDSLKNILTSNNIDVKKMTVTDQVNCPKLS
notes: The amber codon at position 34 was replaced by a Gln codon; Scaffold carries Leu23Pro, Cys116Ser, Pro133Val, Asn134Ala; also called mutein HbgA; not shown: Strep-Tag II fused to the C-terminus (expression from pApoD10)
B1: the Ka in test [1] was greater than 1e+06 M⁻¹. The binding result in test [2] is given as “no binding”. For the same molecule, in test [3], the Kd was 2200 nM.
